41 sequences from the nanobody polyreactivity screen of Harvey et al. (2022) can be followed below.

This series can be described thus: yeast display, Sf9 membrane polyspecificity reagent, FACS + sequencing; frameworks hold sequencing errors. The gist of the method:
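Using colony PCR, genes from sorted yeast display clones were amplified, then sequenced on MiSeq at 2 × 250 and filtered by CDR length. The clones had been stained with 10% biotinylated, detergent-solubilized Sf9 membrane reagent for 1 hour at 4 °C and sorted by FACS into low and high (top ~1%) gates on anti-HA and streptavidin fluorescence. Polyreactivity labels come from the gate of origin.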
On to “QVQLVESGGGLVQAGGSLRLSFAASGFTFWKNAMGWYRQAPGKERELVATISNGGNTYYADSVKGRFTISRDNAKNTVYLQMNSLKPEDTAVYYCATGYPSDLGREFDYWGQGIQVTVSS”, for which the “polyreactivity (PSR sort gate)” value is recorded as “high polyreactivity”.
With “QVQLVESGGGLVQAGGSLRLSCAASGRIFWYNAMGWYRQAPGKERGLVAVISTRGGRTYYADSVKGRFTISRDNAKNTVYLQMNSLKPEDTAVYYCAAEFLNKAVGGVTSIYDSWGQGTQVTVSS”, the “polyreactivity (PSR sort gate)” value is “low polyreactivity”.
As for “QVQLVESGGGLVQAGGSLRLSCAASGSTFFTNAMGWYRQAPAKERELVAVITKRGGSTYYADSVKGRFTISRDKAKNTVYLQMNSLKPEDTAVYYCAARIPKQQGYGYWGHGTQVTVSS”, the “polyreactivity (PSR sort gate)” value was “high polyreactivity”.
Regarding “QVQLVESGGGLVQAGGSLRLSCAASGSIFQHYAMGWYRQAPGKERELVARISYSGGNTYYADSVKGRFTISRDNAKNTVYLQMNSLKPEDTAVYYCAATRSHYPYRSGGDYWGQGTQVTVSS”, the “polyreactivity (PSR sort gate)” value is on record as “low polyreactivity”.
“QVQLVESGGGLVQAGGSLRLSCAASGNILLTNAMGWYRQAPGKEREFVAAIRWSGSRTYYADSVKGRFTISRDNAKNTVYLQMNSLKPEDTAVYYCAVRAVWPVSYGYWYYYWGQGTQVTVSS”: the “polyreactivity (PSR sort gate)” value is given as “high polyreactivity”.
On to “QVQVVESGGGLVQAGGSLRLSCAASGIIFGAYAMGWYRQAPWKEMELVAAITYSSGSTYYADSVKGRFTISRDNSKNTVYLQMNSLKPEDTAVYYCDKTNFSQSSRFNYDYWGQGTQVTVSS”, for which the “polyreactivity (PSR sort gate)” value was “low polyreactivity”.
Regarding “QVQLVESGGGLVQAGGSLRLSCAASGRIFQYYAMGWYRQAPGKERELVAAISGRGTSTYYADSVKGRFTISRDNAKNTVYLQMNRLKPEDTAVYYCNADINYKSYFIHTFTIIPYGYWGQGTLVTVSS”, the “polyreactivity (PSR sort gate)” value is reported as “low polyreactivity”.
For “QVQLVESGGRLVEAGGSLRLSCAASGSTISGNAMGWYRQAPGKERELVAEITSDDSTNYADSVKGRFTISRDNAKNSVYLQMNSLKPEDTAVYYCAADVTYPYYQDHSVDYFIGYAYWRQGTQVTVSS”, the “polyreactivity (PSR sort gate)” value is “low polyreactivity”.
In the case of “QVQLVESGGGLVQAGGSLRLSCAASGRIFSYYAMLWYRQAPGKERELVATINSGGSTNYADSVKGRFTISRDNAKNTVYLQMNSLKPEDTAVYYCAASPVWWYDNWGQGTQVTVSS”, the “polyreactivity (PSR sort gate)” value is reported as “low polyreactivity”.
Regarding “QVQLVKSGGGLVQAGGSLRLSCAASGSTFYNAMGWYRQAPGKEREWVAAISIGGSTYYADSVKGRFTISRYNAKNTVYLQMNSLKPEDTAVYYCNADLYYWLRYYDRNDYWGQGTQVTVSS”, the “polyreactivity (PSR sort gate)” value is reported as “low polyreactivity”.
“QVQLGESGGGLVQAGGSLRLSCAASGSTFESYAMGWYRPAPGKEWELVAAINGGGRTYYADSVKGRFTISRDTAKNTVYLQMNSLNPEDTAVYYCAAEYRRGYYWPWGWEYYWGQGTQVTVSS”: the “polyreactivity (PSR sort gate)” value is “low polyreactivity”.
Take “QVQLVESGGGLVQAGGSLRLSCAASGITFTPYAMGWYRQAPGKERELVAAISWRGGSTYYADSVKGRFTISRDNAKNTVYLQMNSLKPEDTAVYYCAKDGRGYGRYSRYYTGDYWGQGTQVTVST”: the “polyreactivity (PSR sort gate)” value is “low polyreactivity”.
Take “QVQLVESGGGLVQAGGSLRLSCAASGSIFEGNAMGWYREAPGKERELVASISGDGSTNYADSVKGRFTISRDNAKNTVYLQMNSLKPEDTAVYYCNADTISEPGFHMDYWGQGTQVTVSS”: the “polyreactivity (PSR sort gate)” value is “low polyreactivity”.
For the sequence “QVQLVESGGGLVQAGGSLRLSCAASGRIFYPYAMGWYRQAPGKERELVAVINGSGGSTYYADSVKGRFTISRDNAKNTVYLQMNSLKPEDTAVYYCAAYFGHYWRYYYWGQGSQVTVSS”, the “polyreactivity (PSR sort gate)” value is on record as “high polyreactivity”.
“QVQLVESGGGLVKAGGSLRLSCAASGLTFRNNAMGWYRQAPGIERELVASINSGRSTNYADSVKGRFTISRDNAKNTVYLQMNSLKREDTAVYVCATRYYWYTRDSYDYWGQGTQVTVSS”: the “polyreactivity (PSR sort gate)” value was “low polyreactivity”.
Turning to “QVQLVESGGGLVQAGGSLRLICAASGSTITLYAMGWYRQAPGKERELVAAISGIGDSTYYADSVKGRFTISRDNAKNTVYLQMNSLKPEDTAVYYCAADGEYRYDWEYESWGQGTQLTVSS”, the “polyreactivity (PSR sort gate)” value was “low polyreactivity”.
For the sequence “QVQRVESAGRLVQAGGSLRLSCAPSGYTFYGYAMGWYRQAPGKESELVAAISGSGGSTYYADSVKGRFTMSRDNAKNTVYLQMNSLIPEDTAVYYCNKARYAIYRGDGYDYWGQGTEVTVSS”, the “polyreactivity (PSR sort gate)” value was “high polyreactivity”.
For the sequence “QVQLVESGVGLVQAGGSLRLSCAASGITFDYYAMGLYRQAPGKERELVAAIRKSGGSTYYADSVKGRFTISRDNAKNTVYLQMNSLKPEDTAVYYCAAGVRSPFRGGYYWGQGTQVTVSS”, the “polyreactivity (PSR sort gate)” value is “high polyreactivity”.
Turning to “QVQLVESGGGLVQAGGSLRLSCAASGSILTINAMGWYRQAPGKERELVARITISSGSTYYADSVKGRFTISRDNAKNTVYLQMNSLKPEDTAVYYCAVDTSYSDRYDYWGQGTQVTVSS”, the “polyreactivity (PSR sort gate)” value was “low polyreactivity”.
For “QVQLVESGGGLVQAGGSLRLSCAASGSTFEPYAMGWYRQAPGKERELVATITLRGGTTNYADSVKGRFTISRDNAKNTVYLQMNSLKPEDTAVYYCNARKLTGYIRYRTGKMNYWGQGTQVTVSS”, the “polyreactivity (PSR sort gate)” value is recorded as “high polyreactivity”.
Take “QVQLVESGGGLVQAGGSLRLSCAASGSIFWDYAMGWYRQAPGKERELVAAISSNGGNTYYADSVKGRFTISRDNAKNTVYLQMNSLKPEDTAVYYCAARAKRRHGYWGQGTQVTVSS”: the “polyreactivity (PSR sort gate)” value was “high polyreactivity”.
Consider “QVQLVESGGGLVQAGGSLRLSCAASGRIFSRNAMGWYRQAPRKEREFVAAISRRGTSTYYADSVKGRFTISRDNAKNTVYLQMHSLKPEDTAVYYCNAGGSPWYKPVYYRALYDYWGQGTQVTVSS”, for which the “polyreactivity (PSR sort gate)” value is listed as “high polyreactivity”.
Consider “QVQLQESGDGLVQAVGSLRLSCAASGNISGDYYMGWYRQAPGKERELVAGIDAFGSSTNYADCVKGRFTISRDNAKNTVYLQMNRLKPEDTAVYYCAARPDGDRLFSYWGQGTQVTVSS”, for which the “polyreactivity (PSR sort gate)” value was “low polyreactivity”.
Regarding “QVQLVESGGGLVQAGGSLRLSCAASGSIFTRYAMGWYRQAPGKEREFVAAISRRGGRTYYADSVKGRFTISRDNAKNTVYLQMNSLKPEDTAVYYCAASEPPGYYIALFDYWGQGTQVTVSS”, the “polyreactivity (PSR sort gate)” value is given as “high polyreactivity”.
As to “QVQLVESGGGLVQAGGSLRLSCAASGFIFSIYAMGWYRQAPGKERELVAGIDNGGGTYYADSVKGRFTISRDNAKNTVYLQMNSLKPEDTAVYYCDLGSTTMDYWGQGTQVTVSS”, the “polyreactivity (PSR sort gate)” value was “low polyreactivity”.
On to “QVQLVESGGGLVQAGGSLRLSCAASGYTFPYYTMGWYRQAPGKERELVAAISSGGRTKYADSVKGRFTISRDNANNSVYVQMNSLKPEDTAVYYCSARSSYSFAFFWPAYNYWGQGTQVTVSS”, for which the “polyreactivity (PSR sort gate)” value is reported as “high polyreactivity”.
Take “QVQLVESGGGLVQAGGSLRLSCAASGSIFYFYAMGWYRQAPGKERELVASIRWSCGRTRYADSVKGRFTISRDNAKNTVYLQMNSLKPEDTAVYYCAARGGGRPYDYWGQGTQVTVSS”: the “polyreactivity (PSR sort gate)” value is on record as “high polyreactivity”.
On to “QVQLVESGGGLEQAGGRLRLSCADSRRIFGRYAMGWYRQAPGKERELVAAINQSGSTTYYADSVKGRFTISRDNAKNTVYLQMNSLKPEDTAVYYCAADGNGVDYDYWGQGTQVTVSS”, for which the “polyreactivity (PSR sort gate)” value was “low polyreactivity”.
As for “QVHLVESGGGLVQAGCSLRLRSAASGRIFSRNAMGRYRQAPGKERELVAAISTGGTTNYADSVKGRFTISRDNANNTVYLQMNSLKPEDTALYYCNAGLLRRRMDYWGQGTQVTVSS”, the “polyreactivity (PSR sort gate)” value is “high polyreactivity”.
Consider “QVQLVESGGGLVQAGGSLRLSCAASGSNFWLYAMGWYRQAPGKERELVAAIRSGDRTNYADSVKGRFTISRDNAKNTVYLQMNSLKPEDTAVYYCAAVAYLNWTPHYYWGQGTQVTVSS”, for which the “polyreactivity (PSR sort gate)” value was “low polyreactivity”.
Turning to “QVQLVESGGGLVQAGGSLRLSCAASGRTFPTYTMGWYRQAPGQERELVAAITRGGSTKYADSVKGRFTISRDNAKNTVYLQMNSLKPEDTAVYYCAAVYRYRHSFAYYRHEMDYWGQGTQVTVSS”, the “polyreactivity (PSR sort gate)” value is reported as “low polyreactivity”.
Consider “QVQLVESGGGLVQAGGSLRLSCAASGSTFTINVMGWYRQAPGKERELVAAINGGGRTNYADSVKGRFTISRDNAKNTVYLQMNSLKPEDTAVYYCATRYSHNSGFDYWGQGTQVTVSS”, for which the “polyreactivity (PSR sort gate)” value is given as “low polyreactivity”.
In the case of “QVQLVESGGGLVQAGGSLRIICAASGRIFSKYARGWYRQAPGKERELVAAISSRGGNTYYADSVKGRFTISRDNAKNTVYLQMTSLKPEDTAVYFCAAGYYYTGYEYDYWGQGTQVTVSS”, the “polyreactivity (PSR sort gate)” value is reported as “high polyreactivity”.
Consider “QDQLVESGGGLVQAGGSLRLSCAASGFTIQAYAMGWYRQAPGKERELVATISKSGGRTYYADSVKGRFTISRDNAKNTVYLQMNSLKPEDTAVYYCNKRVSGRHYDYWGQGTQVTVSS”, for which the “polyreactivity (PSR sort gate)” value is listed as “high polyreactivity”.
The value for “QVQLVESGGGLFQAGGSLRLSCAASGSTFLIYAMGWYRQAPGKERELVATIRSGGASTNYADSVKGRFTISRDNAKNTVYLQMNSLKPEDTAVYYCPARCWTWTYQSSYVYWGQGTQVTVSS” was “low polyreactivity”; that for “QVQLVESGGGLVQAGGSLRLSCAASGRIFRYYAKGWYRQAPGKERELVAAIRSASSTYYADSVKGRFTISRDNAKNTVYLQMNSLKPEDTAVYDCAAGLYGVYNRRYYYWGQGTQVTVSS” was “high polyreactivity”.
Take “QVQLVESAGGLVQAGGSLRLSCAASGRTFAYNAMGWYRQAPGKERELVADITSGGSTYYADSVKWRFTISRDNAKNTVYLQMNSLKPEDTAVYYCNKLYRGGYGYWGQGTQVTVSS”: the “polyreactivity (PSR sort gate)” value is given as “high polyreactivity”.
In the case of “QVQLVESGGGLVQAGGSLRLISAASGLIFKWYGMVWYRQAPGKEREFVAAITSSGTSTYYADSVKGRFTISRDNAKNTVDLHMNSLKPEDTAVYYCNARTKHRYEYDYWGQGTQVTVSS”, the “polyreactivity (PSR sort gate)” value is “high polyreactivity”.
Regarding “QVQLVESGGGLVQAGGSLRLSCAASGSILRRYAMGWYRQAPGKEREFVAAISYSGSRTYYADSVKGRFTISRDNAKNTVYLQMNSLKPEDTAVYFCAADSYGSRYEYWGQGTQVTVSS”, the “polyreactivity (PSR sort gate)” value is reported as “high polyreactivity”.
The value for “QVQLVESGGGLVQAGGSLRLSCAASGRIFALYAMGWYRQAPGKERELVAAITWRGGRTRYADSVKGRFTISRDNAKNTVYLQMNSLKPEDTAVYYCAKEYVKYQWDYGYWGQGTQVTVSS” was “high polyreactivity”; that for “QVQLVESGGGLVQAGGSLRLSCAASGFTFHNYAMGLYRQSPGKEREFVAAITRNTASTYYADSVKGRFTISRDNAKITVYLQLNSLKPEDTAVYYCAATDKKHRNAYDSWGQVTQVTVSS” was “low polyreactivity”.
